Reference: patent publication US20210369850, “COMPOUNDS AND […] USES […]” (CENTAURI THERAPEUTICS LIMITED, published 2021)

Key:
Conditions in all cases: tags: endogenous on A431 cells (ATCC CRL-1555)
[1] = target: T1, EGFR (epidermal growth factor receptor) (Homo sapiens, UniProt P00533 P00533:25-1210); assay: flow
Experimental: (§1) A secondary phycoerythrin labelled anti-human IgG antibody was used to detect binding of alpha-galactosyl IgG antibody to the compound.
(§2) A431 cells (ATCC CRL-1555) were harvested and resuspended at 5×10⁶ cells/mL in phosphate buffered saline (PBS) (Sigma D8662)+0.1% BSA (Bovine Serum Albumin-Sigma A2153)+0.1 mg/mL Yeast t-RNA (Invitrogen 15401-011)+5 mM MgCl₂ (Sigma M1028) and incubated on ice for 30 minutes to block. 5×10⁵ cells were then incubated with compound at various concentrations as described below or buffer alone at room temperature, shaking at 450 rpm for 1 hour. The cells were washed with 3×200 μL PBS+0.1% BSA, prior to adding 50 μL of Anti-alpha galactosyl IgG antibody (custom purification from human IVIG, Rockland Immunochemicals, Inc.) at 45 μg/mL in PBS+0.1% BSA and incubating at 4° C. for 1 hour. […] After a final wash of 3×200 μL PBS+0.1% BSA the cells were resuspended in 200 μL PBS+0.1% BSA and evaluated on a flow cytometer (FC500 Beckman Coulter). Data from all samples were analysed in the Kaluza software package (Beckman Coulter).
(§3) The fold shift over background was calculated by dividing the Mean Fluorescence Intensity (MFI) obtained in the presence of 10 nM or 1 μM alphamer by the Mean Fluorescence Intensity (MFI) obtained in the absence of alphamer. […]

[2] = target: T1, EGFR (epidermal growth factor receptor); assay: flow; at 1 uM (6.4 at 10 nM); same conditions
Experimental: as §1, §2, §3

[3] = target: T1, EGFR (epidermal growth factor receptor); assay: flow; at 1 uM (5.5 at 10 nM); same conditions
Experimental: as §1, §2, §3

[4] = target: T1, EGFR (epidermal growth factor receptor); assay: flow; at 1 uM (2.5 at 10 nM); same conditions
Experimental: as §1, §2, §3

[5] = target: T1, EGFR (epidermal growth factor receptor); assay: flow; at 1 uM (5.9 at 10 nM); same conditions
Experimental: as §1, §2, §3

[6] = target: T1, EGFR (epidermal growth factor receptor); assay: flow; at 1 uM (3.8 at 10 nM); same conditions
Experimental: as §1, §2, §3

[7] = target: T1, EGFR (epidermal growth factor receptor); assay: flow; at 1 uM (7.0 at 10 nM); same conditions
Experimental: as §1, §2, §3

[8] = target: T1, EGFR (epidermal growth factor receptor); assay: flow; at 1 uM (7.1 at 10 nM); same conditions
Experimental: as §1, §2, §3

[9] = target: T1, EGFR (epidermal growth factor receptor); assay: flow; at 1 uM (4.2 at 10 nM); same conditions
Experimental: as §1, §2, §3

[10] = target: T1, EGFR (epidermal growth factor receptor); assay: flow; at 1 uM (5.7 at 10 nM); same conditions
Experimental: as §1, §2, §3

[11] = target: T1, EGFR (epidermal growth factor receptor); assay: flow; at 1 uM (5.8 at 10 nM); same conditions
Experimental: as §1, §2, §3

[12] = target: T1, EGFR (epidermal growth factor receptor); assay: flow; at 1 uM (6.5 at 10 nM); same conditions
Experimental: as §1, §2, §3

B1: RNA aptamer conjugate 4 (Example 26) (ssRNA)
RNA: GGGAUUUAAUCGCCGUAGAAAAGCAUGUCAAAGCCGGAACCC
modifications: as N22 but 5' alpha-Gal moiety from Preparation 90
Q: For B1, which binding signal [1] is on record?
A: The binding signal was 3.3 fold MFI over background.

B2: RNA aptamer conjugate 13 (Example 35) (ssRNA)
RNA: GGGAUUUAAUCGCCGUAGAAAAGCAUGUCAAAGCCGGAACCC
modifications: as N22 but 5' alpha-Gal moiety from Preparation 96
Q: How did the binding signal [2] turn out when B2 was run?
A: Its binding signal is 12.3 fold MFI over background.

B3: RNA aptamer conjugate 8 (Example 30) (ssRNA)
RNA: GGGAUUUAAUCGCCGUAGAAAAGCAUGUCAAAGCCGGAACCC
modifications: as N22 but 5' alpha-Gal moiety from Preparation 83
Q: B3 was tested. Which binding signal [3] did it give?
A: Its binding signal is 10.5 fold MFI over background.

B4: RNA aptamer conjugate 5 (Example 27) (ssRNA)
RNA: GGGAUUUAAUCGCCGUAGAAAAGCAUGUCAAAGCCGGAACCC
modifications: as N22 but 5' alpha-Gal moiety from Preparation 85
Q: For B4, which binding signal [4] is on record?
A: Its binding signal is 4.1 fold MFI over background.

B5: RNA aptamer conjugate 11 (Example 33) (ssRNA)
RNA: GGGAUUUAAUCGCCGUAGAAAAGCAUGUCAAAGCCGGAACCC
modifications: as N22 but 5' alpha-Gal moiety from Preparation 88
Q: Which binding signal [5] does the source give for B5 here?
A: Its binding signal is 11 fold MFI over background.

B6: RNA aptamer conjugate 15 (Example 37) (ssRNA)
RNA: GGGAUUUAAUCGCCGUAGAAAAGCAUGUCAAAGCCGGAACCC
modifications: as N22 but 5' alpha-Gal moiety from Preparation 97
Q: B6 was tested. Which binding signal [2] did it give?
A: Its binding signal is 12.2 fold MFI over background.

B7: RNA aptamer conjugate 7 (Example 29) (ssRNA)
RNA: GGGAUUUAAUCGCCGUAGAAAAGCAUGUCAAAGCCGGAACCC
modifications: as N22 but 5' alpha-Gal moiety from Preparation 84
Q: For B7, which binding signal [6] is on record?
A: Its binding signal is 8.2 fold MFI over background.

B8: RNA aptamer conjugate 16 (Example 38) (ssRNA)
RNA: GGGAUUUAAUCGCCGUAGAAAAGCAUGUCAAAGCCGGAACCC
modifications: as N22 but 5' alpha-Gal moiety from Preparation 98
Q: Which binding signal [7] does the source give for B8 here?
A: Its binding signal is 13.6 fold MFI over background.

B9: RNA aptamer conjugate 14 (Example 36) (ssRNA)
RNA: GGGAUUUAAUCGCCGUAGAAAAGCAUGUCAAAGCCGGAACCC
modifications: as N22 but 5' alpha-Gal moiety from Preparation 95
Q: With B9 as the binder, how does the binding signal [8] read?
A: The binding signal was 12.4 fold MFI over background.

B10: RNA aptamer conjugate 6 (Example 28) (ssRNA)
RNA: GGGAUUUAAUCGCCGUAGAAAAGCAUGUCAAAGCCGGAACCC
modifications: as N22 but 5' alpha-Gal moiety from Preparation 86
Q: How did the binding signal [9] turn out when B10 was run?
A: Its binding signal is 8.1 fold MFI over background.

B11: RNA aptamer conjugate 10 (Example 32) (ssRNA)
RNA: GGGAUUUAAUCGCCGUAGAAAAGCAUGUCAAAGCCGGAACCC
modifications: as N22 but 5' alpha-Gal moiety from Preparation 89
Q: For B11, which binding signal [10] is on record?
A: The binding signal was 10.4 fold MFI over background.

B12: RNA aptamer conjugate 9 (Example 31) (ssRNA)
RNA: GGGAUUUAAUCGCCGUAGAAAAGCAUGUCAAAGCCGGAACCC
modifications: as N22 but 5' alpha-Gal moiety from Preparation 87
Q: Which binding signal [11] does the source give for B12 here?
A: The binding signal was 12.5 fold MFI over background.

B13: RNA aptamer conjugate 17 (Example 39) (ssRNA)
RNA: GGGAUUUAAUCGCCGUAGAAAAGCAUGUCAAAGCCGGAACCC
modifications: as N22 but 5' alpha-Gal moiety from Preparation 92
Q: How did the binding signal [12] turn out when B13 was run?
A: Its binding signal is 10.4 fold MFI over background.

B14: RNA aptamer conjugate 12 (Example 34) (ssRNA)
RNA: GGGAUUUAAUCGCCGUAGAAAAGCAUGUCAAAGCCGGAACCC
modifications: as N22 but 5' alpha-Gal moiety from Preparation 91
Q: With B14 as the binder, how does the binding signal [9] read?
A: Its binding signal is 7.6 fold MFI over background.
